These results are taken from patent US20140348840A1 (Memorial Sloan Kettering, published 2014).

Experiment [1] concerns the target T1, p300 (UniProt Q09472 2-2414, limits assumed).
T1 construct: The shRNAs used in Kasumi-1 cells are against human p300
The experiment is described as follows: in vitro binding assay with purified proteins.

Experiment [2] has as its target T1, p300. Briefly: anti-Flag co-IP from 293T cells, Western blot for p300. As for the experimental part:
(§1) After 36 hours the cells were lysed in RIPA buffer with 1 mM DTT and DNAse I 1 μg/mL and a proteinase inhibitor cocktail (Roche), and incubated on ice for 30 minutes. Nuclear extracts were prepared to examine the endogenous protein-protein interactions. Anti-Flag agarose (Sigma), anti-HA agarose (Pierce) or protein A/G agarose (Santa Cruz) was used in the immunoprecipitation assays. For western blot assays, protein samples were separated by electrophoresis on denaturing 3-8% or 4-12% premade polyacrylamide gels (Invitrogen) and blotted to PVDF membranes (Millipore).
In general terms: Immunoblotting shows a protein as a band on a membrane.

Experiment [3] concerns the target T1, p300. The experiment is described as follows: anti-HA co-IP, Western blot for p300. As for the experimental part:
as §1

T1 sequence (Q09472 2-2414 limits assumed): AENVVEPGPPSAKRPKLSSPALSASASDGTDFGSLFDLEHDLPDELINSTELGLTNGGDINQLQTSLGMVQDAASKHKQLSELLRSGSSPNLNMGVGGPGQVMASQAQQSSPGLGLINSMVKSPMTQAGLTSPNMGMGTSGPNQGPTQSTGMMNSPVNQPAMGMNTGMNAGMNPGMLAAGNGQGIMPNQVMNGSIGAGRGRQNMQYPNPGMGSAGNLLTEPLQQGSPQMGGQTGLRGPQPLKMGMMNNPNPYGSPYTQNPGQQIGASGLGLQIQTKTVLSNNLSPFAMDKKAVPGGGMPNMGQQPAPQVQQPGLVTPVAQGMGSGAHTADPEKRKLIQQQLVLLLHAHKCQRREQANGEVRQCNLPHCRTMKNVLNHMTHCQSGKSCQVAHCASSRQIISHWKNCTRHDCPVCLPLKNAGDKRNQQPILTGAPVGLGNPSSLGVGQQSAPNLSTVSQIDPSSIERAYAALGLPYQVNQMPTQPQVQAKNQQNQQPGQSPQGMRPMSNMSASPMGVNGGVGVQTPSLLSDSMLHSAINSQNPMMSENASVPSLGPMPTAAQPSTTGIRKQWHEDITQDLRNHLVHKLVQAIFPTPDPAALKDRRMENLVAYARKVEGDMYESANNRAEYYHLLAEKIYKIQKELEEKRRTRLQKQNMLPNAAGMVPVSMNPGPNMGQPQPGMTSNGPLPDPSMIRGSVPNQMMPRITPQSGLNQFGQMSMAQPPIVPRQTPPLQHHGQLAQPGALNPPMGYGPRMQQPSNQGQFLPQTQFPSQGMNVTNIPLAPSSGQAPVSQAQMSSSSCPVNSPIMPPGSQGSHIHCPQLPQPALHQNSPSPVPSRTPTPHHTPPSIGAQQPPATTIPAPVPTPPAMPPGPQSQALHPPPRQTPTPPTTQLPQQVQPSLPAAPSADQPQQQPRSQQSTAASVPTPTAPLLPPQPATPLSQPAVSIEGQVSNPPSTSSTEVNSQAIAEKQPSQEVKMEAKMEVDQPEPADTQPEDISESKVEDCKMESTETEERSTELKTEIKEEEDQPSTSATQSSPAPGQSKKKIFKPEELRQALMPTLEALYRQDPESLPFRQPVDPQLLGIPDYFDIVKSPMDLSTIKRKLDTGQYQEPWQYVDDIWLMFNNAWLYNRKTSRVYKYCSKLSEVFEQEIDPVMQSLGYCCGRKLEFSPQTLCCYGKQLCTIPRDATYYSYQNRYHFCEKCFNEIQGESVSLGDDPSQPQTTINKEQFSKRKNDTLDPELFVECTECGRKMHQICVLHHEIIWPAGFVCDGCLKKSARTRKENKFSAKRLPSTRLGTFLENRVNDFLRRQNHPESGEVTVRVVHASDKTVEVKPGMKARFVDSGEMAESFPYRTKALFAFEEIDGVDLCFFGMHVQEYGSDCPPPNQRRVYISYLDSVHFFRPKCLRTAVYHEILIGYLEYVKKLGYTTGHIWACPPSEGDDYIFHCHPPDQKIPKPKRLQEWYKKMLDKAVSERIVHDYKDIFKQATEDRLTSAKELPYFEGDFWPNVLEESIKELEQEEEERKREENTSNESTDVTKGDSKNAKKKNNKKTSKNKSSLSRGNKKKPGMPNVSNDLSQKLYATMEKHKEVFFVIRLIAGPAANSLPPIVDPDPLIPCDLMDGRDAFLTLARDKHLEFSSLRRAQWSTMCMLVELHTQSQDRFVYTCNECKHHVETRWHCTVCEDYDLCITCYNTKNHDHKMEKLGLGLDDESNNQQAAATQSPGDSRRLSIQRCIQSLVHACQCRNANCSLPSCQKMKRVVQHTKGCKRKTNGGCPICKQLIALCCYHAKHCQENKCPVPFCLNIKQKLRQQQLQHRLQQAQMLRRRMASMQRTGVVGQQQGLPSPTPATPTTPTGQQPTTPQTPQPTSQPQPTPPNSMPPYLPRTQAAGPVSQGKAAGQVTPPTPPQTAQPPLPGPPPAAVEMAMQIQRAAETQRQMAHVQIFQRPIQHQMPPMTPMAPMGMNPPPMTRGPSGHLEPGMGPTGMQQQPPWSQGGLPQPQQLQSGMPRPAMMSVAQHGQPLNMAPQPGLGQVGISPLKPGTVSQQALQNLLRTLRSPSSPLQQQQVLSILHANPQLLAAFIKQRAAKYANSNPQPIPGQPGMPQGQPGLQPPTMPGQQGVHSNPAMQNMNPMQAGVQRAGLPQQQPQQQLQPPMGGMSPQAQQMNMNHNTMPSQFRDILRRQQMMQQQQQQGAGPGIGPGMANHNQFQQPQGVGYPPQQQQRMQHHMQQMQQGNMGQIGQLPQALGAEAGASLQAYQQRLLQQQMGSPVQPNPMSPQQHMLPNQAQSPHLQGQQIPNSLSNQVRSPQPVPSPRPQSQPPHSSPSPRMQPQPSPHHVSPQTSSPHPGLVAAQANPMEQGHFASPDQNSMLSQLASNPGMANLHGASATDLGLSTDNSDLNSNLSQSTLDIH

B1: AML1-ETO fusion protein (other)
chain: MRIPVDASTSRRFTPPSTALSPGKMSEALPLGAPDAGAALAGKLRSGDRSMVEVLADHPGELVRTDSPNFLCSVLPTHWRCNKTLPIAFKVVALGDVPDGTLVTVMAGNDENYSAELRNATAAMKNQVARFNDLRFVGRSGRGKSFTLTITVFTNPPQVATYHRAIKITVDGPREPRNRTEKHSTMPDSPVDVKTQSRLTPPTMPPPPTTQGAPRTSSFTPTTLTNGTSHSPTALNGAPSPPNGFSNGPSSSSSSSLANQQLPPACGARQLSKLKRFLTTLQQFGNDISPEIGERVRTLVLGLVNSTLTIEEFHSKLQEATNFPLRPFVIPFLKANLPLLQRELLHCARLAKQNPAQYLAQHEQLLLDASTTSPVDSSELLLDVNENGKRRTPDRTKENGFDREPLHSEHPSKRPCTISPGQRYSPNNGLSYQPNGLPHPTPPPPQHYRLDDMAIAHHYRDSYRHPSHRDLRDRNRPMGLHGTRQEEMIDHRLTDREWAEEWKHLDHLLNCIMDMVEKTRRSLTVLRRCQEADREELNYWIRRYSDAEDLKKGGGSSSSHSRQQSPVNPDPVALDAHREFLHRPASGYVPEEIWKKAEEAVNEVKRQAMTELQKAVSEAERKAHDMITTERAKMERTVAEAKRQAAEDALAVINQQEDSSESCWNCGRKASETCSGCNTARYCGSFCQHKDWEKHHHICGQTLQAQQQGDTPAVSSSVTPNSGAGSPMDTPPAATPRSTTPGTPSTIETTPR
notes: also called A-E; AE
Regarding B1, the binding result with p300 [1] is reported as “binds”.

B2: Flag-AE (Flag-tagged AML1-ETO) (other)
chain: B1 chain
notes: Expressed in 293T cells with BosNeo-p300; anti-Flag IP; not shown: Flag tag added at the 5' end of the construct (N-terminus)
B2: in the experiment with p300 [2], the binding result is “binds”.

B3: Flag-AE-ΔNHR2 (other)
chain: MRIPVDASTSRRFTPPSTALSPGKMSEALPLGAPDAGAALAGKLRSGDRSMVEVLADHPGELVRTDSPNFLCSVLPTHWRCNKTLPIAFKVVALGDVPDGTLVTVMAGNDENYSAELRNATAAMKNQVARFNDLRFVGRSGRGKSFTLTITVFTNPPQVATYHRAIKITVDGPREPRNRTEKHSTMPDSPVDVKTQSRLTPPTMPPPPTTQGAPRTSSFTPTTLTNGTSHSPTALNGAPSPPNGFSNGPSSSSSSSLANQQLPPACGARQLSKLKRFLTTLQQFGNDISPEIGERVRTLVLGLVNSTLTIEEFHSKLQEATNFPLRPFVIPFLKANLPLLQRELLHCARLAKQNPAQYLAQHEQLLLDASTTSPVDSSELLLDVNENGKRRTPDRTKENGFDREPLHSEHPSKRPCTISPGQRYSPNNGLSYQPNGLPHPTPPPPQHYRLDDMAIAHHYRDSYRHPSHRDLRDRNRPMGLEDLKKGGGSSSSHSRQQSPVNPDPVALDAHREFLHRPASGYVPEEIWKKAEEAVNEVKRQAMTELQKAVSEAERKAHDMITTERAKMERTVAEAKRQAAEDALAVINQQEDSSESCWNCGRKASETCSGCNTARYCGSFCQHKDWEKHHHICGQTLQAQQQGDTPAVSSSVTPNSGAGSPMDTPPAATPRSTTPGTPSTIETTPR
notes: AML1-ETO lacking amino acids 481 to 547 (the NHR2 domain); also called AML1-ETO ΔNHR2; not shown: Flag tag at the N-terminus
Regarding B3, the binding result with p300 [2] is reported as “binds”.

B4: Flag-AE-ΔNHR1 (aa245-436) (other)
chain: MRIPVDASTSRRFTPPSTALSPGKMSEALPLGAPDAGAALAGKLRSGDRSMVEVLADHPGELVRTDSPNFLCSVLPTHWRCNKTLPIAFKVVALGDVPDGTLVTVMAGNDENYSAELRNATAAMKNQVARFNDLRFVGRSGRGKSFTLTITVFTNPPQVATYHRAIKITVDGPREPRNRTEKHSTMPDSPVDVKTQSRLTPPTMPPPPTTQGAPRTSSFTPTTLTNGTSHSPTALNGAPSPPNGFSHRDLRDRNRPMGLHGTRQEEMIDHRLTDREWAEEWKHLDHLLNCIMDMVEKTRRSLTVLRRCQEADREELNYWIRRYSDAEDLKKGGGSSSSHSRQQSPVNPDPVALDAHREFLHRPASGYVPEEIWKKAEEAVNEVKRQAMTELQKAVSEAERKAHDMITTERAKMERTVAEAKRQAAEDALAVINQQEDSSESCWNCGRKASETCSGCNTARYCGSFCQHKDWEKHHHICGQTLQAQQQGDTPAVSSSVTPNSGAGSPMDTPPAATPRSTTPGTPSTIETTPR
notes: also called AML1-ETO ΔNHR1; not shown: Flag tag at the N-terminus
Take B4: the binding result with p300 [2] is “no binding”.

B5: Flag-ETO-ΔNHR1 (other, human, UniProt Q06455 1-604, looked up)
chain: MISVKRNTWRALSLVIGDCRKKGNFEYCQDRTEKHSTMPDSPVDVKTQSRLTPPTMPPPPTTQGAPRTSSFTPTTLTNGTSHSPTALNGAPSPPNGLPHPTPPPPQHYRLDDMAIAHHYRDSYRHPSHRDLRDRNRPMGLHGTRQEEMIDHRLTDREWAEEWKHLDHLLNCIMDMVEKTRRSLTVLRRCQEADREELNYWIRRYSDAEDLKKGGGSSSSHSRQQSPVNPDPVALDAHREFLHRPASGYVPEEIWKKAEEAVNEVKRQAMTELQKAVSEAERKAHDMITTERAKMERTVAEAKRQAAEDALAVINQQEDSSESCWNCGRKASETCSGCNTARYCGSFCQHKDWEKHHHICGQTLQAQQQGDTPAVSSSVTPNSGAGSPMDTPPAATPRSTTPGTPSTIETTPR
notes: not shown: Flag tag
B5: the binding result with p300 [2] is recorded as “no binding”.

B6: HA-AML1-ETO9a (other)
chain: MRIPVDASTSRRFTPPSTALSPGKMSEALPLGAPDAGAALAGKLRSGDRSMVEVLADHPGELVRTDSPNFLCSVLPTHWRCNKTLPIAFKVVALGDVPDGTLVTVMAGNDENYSAELRNATAAMKNQVARFNDLRFVGRSGRGKSFTLTITVFTNPPQVATYHRAIKITVDGPREPRNRTEKHSTMPDSPVDVKTQSRLTPPTMPPPPTTQGAPRTSSFTPTTLTNGTSHSPTALNGAPSPPNGFSNGPSSSSSSSLANQQLPPACGARQLSKLKRFLTTLQQFGNDISPEIGERVRTLVLGLVNSTLTIEEFHSKLQEATNFPLRPFVIPFLKANLPLLQRELLHCARLAKQNPAQYLAQHEQLLLDASTTSPVDSSELLLDVNENGKRRTPDRTKENGFDREPLHSEHPSKRPCTISPGQRYSPNNGLSYQPNGLPHPTPPPPQHYRLDDMAIAHHYRDSYRHPSHRDLRDRNRPMGLHGTRQEEMIDHRLTDREWAEEWKHLDHLLNCIMDMVEKTRRSLTVLRRCQEADREELNYWIRRYSDAEDLKKGGGSSSSHSRQQSPVNPDPVALD
notes: Alternatively spliced form of A-E with 575 amino acids, lacking NHR3 and NHR4; also called A-E9a; AE9a; not shown: HA tag (anti-HA antibody used for the IP)
For B6, in the experiment with p300 [3], the binding result is recorded as “binds”.
